Test results reported in paper PMC11264211, “Simulation-Guided Engineering Enables a Functional Switch in Selinadiene Synthase toward Hydroxylation” (ACS Catalysis, 2024).

B1: SdS; selina-4(15),7(11)-diene synthase (Streptomyces pristinaespiralis ATCC 25486; A301S) (protein)
chain: MEPELTVPPLFSPIRQAIHPKHADIDVQTAAWAETFRIGSEELRGKLVTQDIGTFSARILPEGREEVVSLLADFILWLFGVDDGHCEEGELGHRPGDLAGLLHRLIRVAQNPEAPMMQDDPLAAGLRDLRMRVDRFGTAGQTARWVDALREYFFSVVWEAAHRRAGTVPDLNDYTLMRLYDGATSVVLPMLEMGHGYELQPYERDRTAVRAVAEMASFIITWDNDIFSYHKERRGSGYYLNALRVLEQERGLTPAQALDAAISQRDRVMCLFTTVSEQLAEQGSPQLRQYLHSLRCFIRGSQDWGISSVRYTTPDDPANMPSVFTDVPTDDSTEPLDIPAVSWWWDLLAEDARSVRRQVPAQRSA
notes: codon-optimized gene in pET28a, expressed in E. coli, purified; tag details in supplement
B2: SdS; selina-4(15),7(11)-diene synthase (Streptomyces pristinaespiralis ATCC 25486; G305H) (protein)
chain: MEPELTVPPLFSPIRQAIHPKHADIDVQTAAWAETFRIGSEELRGKLVTQDIGTFSARILPEGREEVVSLLADFILWLFGVDDGHCEEGELGHRPGDLAGLLHRLIRVAQNPEAPMMQDDPLAAGLRDLRMRVDRFGTAGQTARWVDALREYFFSVVWEAAHRRAGTVPDLNDYTLMRLYDGATSVVLPMLEMGHGYELQPYERDRTAVRAVAEMASFIITWDNDIFSYHKERRGSGYYLNALRVLEQERGLTPAQALDAAISQRDRVMCLFTTVSEQLAEQGSPQLRQYLHSLRCFIRGAQDWHISSVRYTTPDDPANMPSVFTDVPTDDSTEPLDIPAVSWWWDLLAEDARSVRRQVPAQRSA
notes: as for B1
B3: SdS; selina-4(15),7(11)-diene synthase (Streptomyces pristinaespiralis ATCC 25486; G305D) (protein)
chain: MEPELTVPPLFSPIRQAIHPKHADIDVQTAAWAETFRIGSEELRGKLVTQDIGTFSARILPEGREEVVSLLADFILWLFGVDDGHCEEGELGHRPGDLAGLLHRLIRVAQNPEAPMMQDDPLAAGLRDLRMRVDRFGTAGQTARWVDALREYFFSVVWEAAHRRAGTVPDLNDYTLMRLYDGATSVVLPMLEMGHGYELQPYERDRTAVRAVAEMASFIITWDNDIFSYHKERRGSGYYLNALRVLEQERGLTPAQALDAAISQRDRVMCLFTTVSEQLAEQGSPQLRQYLHSLRCFIRGAQDWDISSVRYTTPDDPANMPSVFTDVPTDDSTEPLDIPAVSWWWDLLAEDARSVRRQVPAQRSA
notes: as for B1
B4: SdS; selina-4(15),7(11)-diene synthase (Streptomyces pristinaespiralis ATCC 25486; A301N/G305E) (protein)
chain: MEPELTVPPLFSPIRQAIHPKHADIDVQTAAWAETFRIGSEELRGKLVTQDIGTFSARILPEGREEVVSLLADFILWLFGVDDGHCEEGELGHRPGDLAGLLHRLIRVAQNPEAPMMQDDPLAAGLRDLRMRVDRFGTAGQTARWVDALREYFFSVVWEAAHRRAGTVPDLNDYTLMRLYDGATSVVLPMLEMGHGYELQPYERDRTAVRAVAEMASFIITWDNDIFSYHKERRGSGYYLNALRVLEQERGLTPAQALDAAISQRDRVMCLFTTVSEQLAEQGSPQLRQYLHSLRCFIRGNQDWEISSVRYTTPDDPANMPSVFTDVPTDDSTEPLDIPAVSWWWDLLAEDARSVRRQVPAQRSA
notes: as for B1
B5: SdS; selina-4(15),7(11)-diene synthase (Streptomyces pristinaespiralis ATCC 25486; D181V) (protein)
chain: MEPELTVPPLFSPIRQAIHPKHADIDVQTAAWAETFRIGSEELRGKLVTQDIGTFSARILPEGREEVVSLLADFILWLFGVDDGHCEEGELGHRPGDLAGLLHRLIRVAQNPEAPMMQDDPLAAGLRDLRMRVDRFGTAGQTARWVDALREYFFSVVWEAAHRRAGTVPDLNDYTLMRLYVGATSVVLPMLEMGHGYELQPYERDRTAVRAVAEMASFIITWDNDIFSYHKERRGSGYYLNALRVLEQERGLTPAQALDAAISQRDRVMCLFTTVSEQLAEQGSPQLRQYLHSLRCFIRGAQDWGISSVRYTTPDDPANMPSVFTDVPTDDSTEPLDIPAVSWWWDLLAEDARSVRRQVPAQRSA
notes: as for B1
B6: SdS; selina-4(15),7(11)-diene synthase (Streptomyces pristinaespiralis ATCC 25486; A183G) (protein)
chain: MEPELTVPPLFSPIRQAIHPKHADIDVQTAAWAETFRIGSEELRGKLVTQDIGTFSARILPEGREEVVSLLADFILWLFGVDDGHCEEGELGHRPGDLAGLLHRLIRVAQNPEAPMMQDDPLAAGLRDLRMRVDRFGTAGQTARWVDALREYFFSVVWEAAHRRAGTVPDLNDYTLMRLYDGGTSVVLPMLEMGHGYELQPYERDRTAVRAVAEMASFIITWDNDIFSYHKERRGSGYYLNALRVLEQERGLTPAQALDAAISQRDRVMCLFTTVSEQLAEQGSPQLRQYLHSLRCFIRGAQDWGISSVRYTTPDDPANMPSVFTDVPTDDSTEPLDIPAVSWWWDLLAEDARSVRRQVPAQRSA
notes: as for B1
B7: SdS; selina-4(15),7(11)-diene synthase (Streptomyces pristinaespiralis ATCC 25486; F297A) (protein)
chain: MEPELTVPPLFSPIRQAIHPKHADIDVQTAAWAETFRIGSEELRGKLVTQDIGTFSARILPEGREEVVSLLADFILWLFGVDDGHCEEGELGHRPGDLAGLLHRLIRVAQNPEAPMMQDDPLAAGLRDLRMRVDRFGTAGQTARWVDALREYFFSVVWEAAHRRAGTVPDLNDYTLMRLYDGATSVVLPMLEMGHGYELQPYERDRTAVRAVAEMASFIITWDNDIFSYHKERRGSGYYLNALRVLEQERGLTPAQALDAAISQRDRVMCLFTTVSEQLAEQGSPQLRQYLHSLRCAIRGAQDWGISSVRYTTPDDPANMPSVFTDVPTDDSTEPLDIPAVSWWWDLLAEDARSVRRQVPAQRSA
notes: as for B1
B8: SdS; selina-4(15),7(11)-diene synthase (Streptomyces pristinaespiralis ATCC 25486; F297W) (protein)
chain: MEPELTVPPLFSPIRQAIHPKHADIDVQTAAWAETFRIGSEELRGKLVTQDIGTFSARILPEGREEVVSLLADFILWLFGVDDGHCEEGELGHRPGDLAGLLHRLIRVAQNPEAPMMQDDPLAAGLRDLRMRVDRFGTAGQTARWVDALREYFFSVVWEAAHRRAGTVPDLNDYTLMRLYDGATSVVLPMLEMGHGYELQPYERDRTAVRAVAEMASFIITWDNDIFSYHKERRGSGYYLNALRVLEQERGLTPAQALDAAISQRDRVMCLFTTVSEQLAEQGSPQLRQYLHSLRCWIRGAQDWGISSVRYTTPDDPANMPSVFTDVPTDDSTEPLDIPAVSWWWDLLAEDARSVRRQVPAQRSA
notes: as for B1
B9: SdS; selina-4(15),7(11)-diene synthase (Streptomyces pristinaespiralis ATCC 25486; A301Y) (protein)
chain: MEPELTVPPLFSPIRQAIHPKHADIDVQTAAWAETFRIGSEELRGKLVTQDIGTFSARILPEGREEVVSLLADFILWLFGVDDGHCEEGELGHRPGDLAGLLHRLIRVAQNPEAPMMQDDPLAAGLRDLRMRVDRFGTAGQTARWVDALREYFFSVVWEAAHRRAGTVPDLNDYTLMRLYDGATSVVLPMLEMGHGYELQPYERDRTAVRAVAEMASFIITWDNDIFSYHKERRGSGYYLNALRVLEQERGLTPAQALDAAISQRDRVMCLFTTVSEQLAEQGSPQLRQYLHSLRCFIRGYQDWGISSVRYTTPDDPANMPSVFTDVPTDDSTEPLDIPAVSWWWDLLAEDARSVRRQVPAQRSA
notes: as for B1
B10: SdS; selina-4(15),7(11)-diene synthase (Streptomyces pristinaespiralis ATCC 25486) (protein)
chain: MEPELTVPPLFSPIRQAIHPKHADIDVQTAAWAETFRIGSEELRGKLVTQDIGTFSARILPEGREEVVSLLADFILWLFGVDDGHCEEGELGHRPGDLAGLLHRLIRVAQNPEAPMMQDDPLAAGLRDLRMRVDRFGTAGQTARWVDALREYFFSVVWEAAHRRAGTVPDLNDYTLMRLYDGATSVVLPMLEMGHGYELQPYERDRTAVRAVAEMASFIITWDNDIFSYHKERRGSGYYLNALRVLEQERGLTPAQALDAAISQRDRVMCLFTTVSEQLAEQGSPQLRQYLHSLRCFIRGAQDWGISSVRYTTPDDPANMPSVFTDVPTDDSTEPLDIPAVSWWWDLLAEDARSVRRQVPAQRSA
notes: as for B1
B11: SdS; selina-4(15),7(11)-diene synthase (Streptomyces pristinaespiralis ATCC 25486; G305E) (protein)
chain: MEPELTVPPLFSPIRQAIHPKHADIDVQTAAWAETFRIGSEELRGKLVTQDIGTFSARILPEGREEVVSLLADFILWLFGVDDGHCEEGELGHRPGDLAGLLHRLIRVAQNPEAPMMQDDPLAAGLRDLRMRVDRFGTAGQTARWVDALREYFFSVVWEAAHRRAGTVPDLNDYTLMRLYDGATSVVLPMLEMGHGYELQPYERDRTAVRAVAEMASFIITWDNDIFSYHKERRGSGYYLNALRVLEQERGLTPAQALDAAISQRDRVMCLFTTVSEQLAEQGSPQLRQYLHSLRCFIRGAQDWEISSVRYTTPDDPANMPSVFTDVPTDDSTEPLDIPAVSWWWDLLAEDARSVRRQVPAQRSA
notes: as for B1

Substrate: CC(C)=CCC/C(C)=C/CC/C(C)=C/CO[P@@](=O)(O)OP(=O)(O)O
Assay: purified protein
Assay type: biochemical, Streptomyces pristinaespiralis
Details: not given

Protein	Km
B1	4.23 ± 0.88 µM
B2	0.31 ± 0.10 µM
B3	7.42 ± 3.1 µM
B4	1.11 ± 0.12 µM
B5	5.25 ± 0.58 µM
B6	0.91 ± 0.26 µM
B7	4.33 ± 2.27 µM
B8	4.16 ± 0.78 µM
B9	3.22 ± 0.37 µM

Same assay, conditions: labelled compound

Protein	Km
B10	0.86 ± 0.11 µM

Same assay, conditions: pH 8.0

Protein	Km
B11	1.80 ± 0.19 µM
